According to patent US20220177587A1, “METHODS AND USES OF VARIANT CD80 FUSION PROTEINS AND RELATED CONSTRUCTS” (Alpine Immune Sciences, Inc., priority 2018, published 2022):

Experiments:
huPD-L1 = huPD-L1 (Homo sapiens, UniProt Q9NZQ7); assay: Flow binding to CHO cells stably expressing PD-L1; set-up: huCTLA4 and huPD-L1, full-length mammalian surface expression constructs were generated; expressed in transfected cells; host or cells: CHO cells, lentiviral transduction, sorted to >98% purity
Method: (§1) Binding of selected immunomodulatory fusion proteins to cognate binding partners was assessed. […] Cells were sorted in a Bio-Rad S3 Cell Sorter (Bio-Rad Corp., USA) to >98% purity. Jurkat/IL2 reporter cells, which endogenously express CD28, were used to detect binding to CD28.
(§2) For staining and analysis by flow cytometry, 100,000 cells of appropriate transfected cells were plated in 96-well round bottom plates. Cells were spun down and resuspended in staining buffer (phosphate buffered saline (PBS), 1% bovine serum albumin (BSA), and 0.1% sodium azide) for 20 minutes to block non-specific binding. […] Primary staining was performed on ice for 45 minutes, before washing cells in staining buffer twice. Phycoerythrin (PE)-conjugated anti-human Fc (Jackson ImmunoResearch, USA) was diluted 1:150, added to cells and incubated another 30 minutes on ice. Cells were then washed twice with 150 μL/well stain buffer, fixed in 2% formaldehyde/PBS, and analyzed on Intellicyt flow cytometer (Intellicyt Corp., USA). PE Mean Fluorescence Intensity (MFI) was calculated for each cell type with FlowJo Version 10 software (FlowJo LLC, USA).
(§3) Binding assays were carried out to assess the specificity and affinity of multivalent proteins to cell-expressed CTLA-4, CD28, and PD-L1 counter structures.
(§4) The EC50 for binding also was determined.

huCTLA4 = huCTLA4 (Homo sapiens, UniProt P16410); assay: Flow binding to CHO cells stably expressing CTLA4; set-up: huCTLA4 and huPD-L1, full-length mammalian surface expression constructs were generated; expressed in transfected cells; host or cells: CHO cells, lentiviral transduction, sorted to >98% purity; settings: CHO cells stably expressing CTLA4, 33.3 nM
Method: as §1, §2, §3, §4

CD28 [1] = target: T1, CD28 (Homo sapiens, UniProt P10747); assay: Jurkat/IL2 + CHO/OKT3 +/- PD-L1 reporter assay: PD-L1-dependent CD28 costimulation; format: cell-based; set-up: host or cells: Jurkat cells expressing an IL-2-luciferase reporter; settings: Table E22; Jurkat/IL2 + CHO/OKT3/PD-L1; CD80 Conc 5.0 nM
Method: Jurkat cells were then plated at 50 μL/well for a total of 100,000 cells per well.
To each well, 25 μL of test protein was added to the Jurkat cells. […] The Jurkat cells with test or control proteins were incubated for 15 minutes at room temperature. CHO-derived artificial antigen presenting cells (aAPC) displaying transduced cell surface anti-CD3 single chain Fv (OKT3) (i.e., no PD-L1), or OKT3 and PD-L1 (i.e., +PD-L1), were brought to 0.8×10^6 cells/mL, and 25 μL of cells were added to each well, bringing the final volume of each well to 100 μL. […] Jurkat cells and CHO cells were incubated for 5 hours at 37 degrees Celsius in a humidified 5% CO2 incubation chamber. Plates were then removed from the incubator and acclimated to room temperature for 15 minutes. 100 μL of a cell lysis and luciferase substrate solution (BioGlo luciferase reagent, Promega) were added to each well and the plates were incubated on an orbital shaker for 10 minutes. Luminescence was measured with a 1 second per well integration time using a BioTek Cytation luminometer, and a relative luminescence value (RLU) was determined for each test sample.

CD28 [2] = target: T1, CD28; assay: Flow binding to Jurkat/IL2 reporter cells (CD28); set-up: host or cells: Jurkat cells expressing an IL-2-luciferase reporter
Method: as §1, §2, §3, §4

[3] = Table E20, CHO cells stably expressing PD-L1, 33.3 nM
[4] = Table E20, Jurkats (CD28), 33.3 nM
[5] = Table E10, 33.3 nM, CHO cells stably expressing PD-L1
[6] = Table E10, 33.3 nM, Jurkats (CD28)
[7] = Table E25, linker variants, 33.3 nM, CHO cells stably expressing PD-L1
[8] = Table E25, linker variants, 33.3 nM, Jurkats (CD28)

Sequence of huPD-L1 (Q9NZQ7 19-290): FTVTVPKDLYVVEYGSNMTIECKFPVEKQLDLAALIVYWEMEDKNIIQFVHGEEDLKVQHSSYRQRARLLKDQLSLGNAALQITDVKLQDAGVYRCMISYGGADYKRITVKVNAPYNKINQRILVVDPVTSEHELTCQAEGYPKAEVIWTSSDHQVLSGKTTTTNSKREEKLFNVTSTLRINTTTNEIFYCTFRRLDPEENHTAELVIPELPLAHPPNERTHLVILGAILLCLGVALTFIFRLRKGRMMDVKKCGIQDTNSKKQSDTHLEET
Sequence of huCTLA4 (P16410 36-223): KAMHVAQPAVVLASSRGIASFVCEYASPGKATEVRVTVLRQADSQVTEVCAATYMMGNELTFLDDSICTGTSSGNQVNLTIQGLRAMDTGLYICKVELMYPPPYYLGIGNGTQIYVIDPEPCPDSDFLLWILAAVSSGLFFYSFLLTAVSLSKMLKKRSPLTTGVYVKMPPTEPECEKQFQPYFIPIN

| Substance | PD-L1 MFI at 33.3 nM (huPD-L1; [3]) | CTLA4 MFI at 33.3 nM (huCTLA4; Table E20) | Relative Luciferase Units (RLU), CD80 Conc 5.0 nM (CD28 [1]) | CD28 MFI at 33.3 nM (CD28 [2]; [4]) | other results |
| --- | --- | --- | --- | --- | --- |
| H18Y/A26E/E35D/M47L/V68M | 24683 | 20015 | 895 RLU |  |  |
| H18Y/A26E/E35D/M47L/V68M/A71G | 28546 | 25404 | 976 RLU |  |  |
| H18Y/A26E/M47L/A71G/D90G |  | 25420 | 1036 RLU | 2047 |  |
| H18Y/A26N/E35D/M47F/V68M/A71G/D90G |  |  |  |  | PD-L1 MFI at 33.3 nM (huPD-L1; Table E23, CD80 IgV-Fc (inert) at 33.3 nM, CHO cells stably expressing PD-L1): 26510; CD28 MFI at 33.3 nM (CD28 [2]; Table E23, CD80 IgV-Fc (inert) at 33.3 nM, Jurkat (CD28)): 82.2 |
| H18Y/E35D/M47L/A71G/D90G | 13327 | 22983 | 851 RLU |  |  |
| H18Y/E35D/M47L/V68M/A71G/D90G | 29944 | 19892 | 1028 RLU |  |  |
| Inert Fc |  |  |  |  | PD-L1 MFI at 33.3 nM (huPD-L1; [5]): 41; CTLA4 MFI at 33.3 nM (huCTLA4; Table E10): 65.7; CD28 MFI at 33.3 nM (CD28 [2]; [6]): 23 |
| Inert Fc (control) |  |  |  |  | PD-L1 MFI at 33.3 nM (huPD-L1; [7]): 58; CTLA4 MFI at 33.3 nM (huCTLA4; Table E25, linker variants): 40; CD28 MFI at 33.3 nM (CD28 [2]; [8]): 20 |
| WT CD80 ECD-Fc (Abcam) |  |  |  |  | PD-L1 MFI at 33.3 nM (huPD-L1; Table E19, CHO cells stably expressing PD-L1, 33.3 nM): 128; CD28 MFI at 33.3 nM (CD28 [2]; Table E19, Jurkats (CD28), 33.3 nM): 709 |
| WT CD80 ECD-Fc H22.6 |  |  |  |  | PD-L1 MFI at 33.3 nM (huPD-L1; [5]): 46.3; CD28 MFI at 33.3 nM (CD28 [2]; [6]): 43 |
| WT CD80 ECD-Fc: wild-type CD80 ECD (SEQ ID NO:2)-Fc; R&D Systems where stated [reference compound] | 6377 |  |  | 42.3 | PD-L1 MFI at 33.3 nM (huPD-L1; Table E3, 33.3 nM): 7943; PD-L1 MFI at 33.3 nM (huPD-L1; Table E4, 33.3 nM, CHO cells stably expressing PD-L1): 11871; PD-L1 MFI at 33.3 nM (huPD-L1; Table E11, CHO cells stably expressing PD-L1, 33.3 nM): 52; PD-L1 MFI at 33.3 nM (huPD-L1; Table E14, CHO cells stably expressing PD-L1, 33.3 nM): 68; PD-L1 MFI at 33.3 nM (huPD-L1; Table E16, consensus variants, CHO cells stably expressing PD-L1, 33.3 nM): 58; PD-L1 MFI at 33.3 nM (huPD-L1; [7]): 35; EC50 (huPD-L1; Table E31, flow binding to CHO cells stably expressing PD-L1): 31.2 nM; CD28 MFI at 33.3 nM (CD28 [2]; Table E3, 33.3 nM): 7627; CD28 MFI at 33.3 nM (CD28 [2]; Table E4, 33.3 nM, Jurkat cells (CD28)): 18035; CD28 MFI at 33.3 nM (CD28 [2]; Table E11, Jurkats (CD28), 33.3 nM): 31; CD28 MFI at 33.3 nM (CD28 [2]; Table E14, Jurkats (CD28), 33.3 nM): 30; CD28 MFI at 33.3 nM (CD28 [2]; Table E16, consensus variants, Jurkats (CD28), 33.3 nM): 46; CD28 MFI at 33.3 nM (CD28 [2]; [8]): 37; EC50 (CD28 [2]; Table E31, flow binding to Jurkats (CD28), read-out: CD28 EC50): 164 nM |

Now from value to substance, other results behind:

| PD-L1 MFI at 33.3 nM (huPD-L1; [3]) | CTLA4 MFI at 33.3 nM (huCTLA4; Table E20) | Relative Luciferase Units (RLU), CD80 Conc 5.0 nM (CD28 [1]) | CD28 MFI at 33.3 nM (CD28 [2]; [4]) | Substance | other results |
| --- | --- | --- | --- | --- | --- |
| 29730 | 21742 |  | 544 | H18Y/A26E/M47L/V68M/A71G |  |
| 27410 |  | 852 RLU | 3389 | H18Y/E35D/M47L/V68M/D90G |  |
|  | 24335 | 815 RLU | 2724 | H18Y/E35D/V68M/A71G/D90G |  |
|  | 22235 | 986 RLU |  | H18Y/M47L/V68M/A71G/D90G |  |
